{
  "source": "patent US20050208039A1",
  "target": "158P1D7 receptor on HUVEC cells (unidentified)",
  "test": "flow cytometry on HUVEC cells; bound ECD detected with anti-158P1D7-PE (MAb M15/X68.2.22 at 1 ug/ml and anti-mouse-PE); by the order of the key, 2.88% is taken as the sample 'HUVEC No ECD' and 6.53% as 'HUVEC 158P1D7 ECD' [panel printed as Fig. 34A]",
  "data": [
    {"substance": "Recombinant extracellular domain (ECD) of 158P1D7 (amino acids 16-608) (from UniProt Q9H5Y7 16-608)", "values": [
      {"measurement": "% gated", "value": 6.53, "unit": "%"}
    ]}
  ]
}
